Patent US20200317768A1 (published 2020)

T1: cynomolgus monkey FcγRIIa3 extracellular domain with C-terminal His-tag (cynomolgus monkey)
T1 construct: Expressed in FreeStyle 293 cells and purified; also called cyno FcγRIIa3; cynoFcgRIIa3; not shown: C-terminal His-tag
T1 chain: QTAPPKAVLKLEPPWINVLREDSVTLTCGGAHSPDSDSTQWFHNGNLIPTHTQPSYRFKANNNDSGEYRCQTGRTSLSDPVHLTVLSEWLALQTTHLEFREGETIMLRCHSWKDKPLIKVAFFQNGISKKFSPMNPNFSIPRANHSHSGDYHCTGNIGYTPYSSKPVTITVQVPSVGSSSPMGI

T2: cynomolgus monkey FcγRIIb extracellular domain with C-terminal His-tag (cynomolgus monkey)
T2 construct: Expressed in FreeStyle 293 cells and purified; also called cyno FcγRIIb; cynoFcγRIIb; not shown: C-terminal His-tag
T2 chain: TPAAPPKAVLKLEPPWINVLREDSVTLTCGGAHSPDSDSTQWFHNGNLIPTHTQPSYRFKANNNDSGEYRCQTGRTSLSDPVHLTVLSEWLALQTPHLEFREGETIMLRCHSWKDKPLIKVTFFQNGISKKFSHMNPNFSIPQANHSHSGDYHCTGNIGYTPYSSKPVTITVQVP

T3: human FcγRIIaR extracellular domain with C-terminal His-tag (human, UniProt P12318 34-217)
T3 construct: Expressed in FreeStyle 293 cells and purified; also called human FcγRIIa (type R); FcgRIIaR; not shown: C-terminal His-tag
T3 chain: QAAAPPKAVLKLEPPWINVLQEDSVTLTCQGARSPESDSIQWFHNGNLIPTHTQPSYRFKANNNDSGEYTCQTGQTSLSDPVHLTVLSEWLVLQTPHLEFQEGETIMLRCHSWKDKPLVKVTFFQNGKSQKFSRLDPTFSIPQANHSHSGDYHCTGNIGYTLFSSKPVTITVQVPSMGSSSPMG

T4: human FcγRIIb extracellular domain with C-terminal His-tag (human, UniProt P31994 43-217)
T4 construct: Expressed in FreeStyle 293 cells and purified; also called humanFcgRIIb; not shown: C-terminal His-tag
T4 sequence: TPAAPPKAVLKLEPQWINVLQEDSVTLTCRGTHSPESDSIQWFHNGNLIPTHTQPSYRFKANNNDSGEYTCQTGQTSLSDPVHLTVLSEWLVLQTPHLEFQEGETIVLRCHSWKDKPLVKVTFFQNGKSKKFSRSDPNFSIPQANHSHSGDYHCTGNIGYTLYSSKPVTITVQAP

T5: cynomolgus monkey FcγRIIa2 extracellular domain with C-terminal His-tag (cynomolgus monkey)
T5 construct: Expressed in FreeStyle 293 cells and purified; also called cyno FcγRIIa2; cynoFcgRIIa2; not shown: C-terminal His-tag
T5 chain: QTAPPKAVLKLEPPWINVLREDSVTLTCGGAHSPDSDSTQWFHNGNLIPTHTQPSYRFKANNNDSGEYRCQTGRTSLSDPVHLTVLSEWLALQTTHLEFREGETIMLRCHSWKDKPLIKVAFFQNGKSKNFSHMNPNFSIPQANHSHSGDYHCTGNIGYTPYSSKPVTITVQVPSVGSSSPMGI

T6: cynomolgus monkey FcγRIIa1 extracellular domain with C-terminal His-tag (cynomolgus monkey)
T6 construct: Expressed in FreeStyle 293 cells and purified; also called cyno FcγRIIa1; cynoFcgRIIa1; not shown: C-terminal His-tag
T6 chain: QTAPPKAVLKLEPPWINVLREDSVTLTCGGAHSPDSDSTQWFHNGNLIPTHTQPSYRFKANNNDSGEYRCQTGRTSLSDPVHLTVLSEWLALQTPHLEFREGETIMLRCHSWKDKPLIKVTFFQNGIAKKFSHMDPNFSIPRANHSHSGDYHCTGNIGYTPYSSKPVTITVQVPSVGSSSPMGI

T7: human FcγRIIaH extracellular domain with C-terminal His-tag (human, UniProt P12318 34-217)
T7 construct: Expressed in FreeStyle 293 cells and purified; also called human FcγRIIa (type H); FcgRIIaH; not shown: C-terminal His-tag
T7 sequence: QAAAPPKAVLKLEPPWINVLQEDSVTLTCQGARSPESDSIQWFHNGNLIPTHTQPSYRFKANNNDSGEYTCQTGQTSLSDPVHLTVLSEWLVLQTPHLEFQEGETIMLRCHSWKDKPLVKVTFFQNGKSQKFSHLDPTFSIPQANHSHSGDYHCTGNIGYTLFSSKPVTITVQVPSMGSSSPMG

T8: cynomolgus monkey FcγRIIIaS extracellular domain with C-terminal His-tag (cynomolgus monkey, UniProt Q8SPW2 21-206 at identity 1.00))
T8 construct: Expressed in FreeStyle 293 cells and purified; also called cyno FcγRIIIaS; cynoFcγRIIIaS; not shown: C-terminal His-tag
T8 chain: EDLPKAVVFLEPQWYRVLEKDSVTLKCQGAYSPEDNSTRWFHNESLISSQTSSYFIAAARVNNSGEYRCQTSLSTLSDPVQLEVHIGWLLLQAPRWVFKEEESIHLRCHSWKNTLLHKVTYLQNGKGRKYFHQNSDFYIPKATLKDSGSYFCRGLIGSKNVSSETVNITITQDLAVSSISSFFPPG


What was measured:
Assay in all cases: SPR (Biacore); KD of SG1 divided by KD of the variant for this FcgR;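 also: relative to parent M103205H795-SG1 carrying the SG1 human heavy chain constant region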
[1] = target: T1, cynomolgus monkey FcγRIIa3 …
[2] = target: T2, cynomolgus monkey FcγRIIb extracellular …
[3] = target: T3, human FcγRIIaR extracellular domain …
[4] = target: T4, human FcγRIIb extracellular domain with …
[5] = target: T5, cynomolgus monkey FcγRIIa2 …
[6] = target: T9, human FcγRIIIaV extracellular domain with C-terminal His-tag (human, UniProt P08637 17-208)
T9 construct: Expressed in FreeStyle 293 cells and purified; also called FcgRIIIaV; not shown: C-terminal His-tag

[7] = target: T6, cynomolgus monkey FcγRIIa1 …
[8] = target: T7, human FcγRIIaH extracellular domain …
[9] = target: T8, cynomolgus monkey FcγRIIIaS …

T9 sequence (P08637 17-208 F176V): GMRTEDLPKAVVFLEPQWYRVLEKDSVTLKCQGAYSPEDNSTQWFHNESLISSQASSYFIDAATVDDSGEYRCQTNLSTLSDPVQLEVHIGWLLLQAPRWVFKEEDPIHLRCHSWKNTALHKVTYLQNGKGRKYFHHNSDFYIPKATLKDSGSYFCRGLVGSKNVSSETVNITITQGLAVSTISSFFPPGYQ

Row | Binder | KD fold (SG1 = 1) [1] | KD fold (SG1 = 1) [2] | KD fold (SG1 = 1) [3] | KD fold (SG1 = 1) [4] | KD fold (SG1 = 1) [5] | KD fold (SG1 = 1) [6] | KD fold (SG1 = 1) [7] | KD fold (SG1 = 1) [8] | KD fold (SG1 = 1) [9]
1 | M103205H795-MY330 / M103202L889-SK1 (antibody, human IgG1, kappa, Fc variant of M103205H795-SG1, expressed with M103202L889-SK1 as light chain) heavy: QVTLKESGPVLVKPTETLTLTCTVSGIDLSHDDISWVRQAPGKGLEWVGIISYAGSTYYASWAKGRLTISKDTSKNQVVLTMTNMDPVDTATYYCARGVPAYSHGGDLWGQGTLVTVSSASTKGPSVFPLAPSSKSTSGGTAALGCLVKDYFPEPVTVSWNSGALTSGVHTFPAVLQSSGLYSLSSVVTVPSSSLGTQTYICNVNHKPSNTKVDKKVEPKSCDKTHTCPPCPAPELWNGPSVFLFPPKPKDTLMISRTPEVTCVVVDVSEEDPEVKFNWYVDGVEVHNAKTKPREEQYNSTYRVVSVLTVLHQDWLNGKEYKCKVSNKALPKPIEKTISKAKGQPREPQVYTLPPSREEMTKNQVSLTCLVKGFYPSDIAVEWESNGQPENNYKTTPMVLDSDGSFFLYSKLTVDKSRWQQGNVFSCSVMHEALHNHYTQKSLSLSP light: DIVMTQSPATLSLSPGERATLSCTSSQSVYHANWLSWFQQKPGQPPKLLIYWASTLAYGVPSRFSGSGSGTDFTLTISSLQPEDAATYYCAGGYGGGRYAFGQGTKVEIKRTVAAPSVFIFPPSDEQLKSGTASVVCLLNNFYPREAKVQWKVDNALQSGNSQESVTEQDSKDSTYSLSSTLTLSKADYEKHKVYACEVTHQGLSSPVTKSFNRGEC | 3.6 fold | 3 fold | 1.2 fold | 6.9 fold | 2.3 fold | 0.07 fold | 1.5 fold | 0.7 fold | 0.05 fold
2 | M103205H795-MY434 / M103202L889-SK1 (antibody, human IgG1, kappa, Fc variant of M103205H795-SG1, expressed with M103202L889-SK1 as light chain) heavy: QVTLKESGPVLVKPTETLTLTCTVSGIDLSHDDISWVRQAPGKGLEWVGIISYAGSTYYASWAKGRLTISKDTSKNQVVLTMTNMDPVDTATYYCARGVPAYSHGGDLWGQGTLVTVSSASTKGPSVFPLAPSSKSTSGGTAALGCLVKDYFPEPVTVSWNSGALTSGVHTFPAVLQSSGLYSLSSVVTVPSSSLGTQTYICNVNHKPSNTKVDKKVEPKSCDKTHTCPPCPAPELWNGPSVFLFPPKPKDTLMISRTPEVTCVVVDVSDEDPEVKFNWYVDGVEVHNAKTKPREEQYNSTYRVVSVLTVLHQDWLNGKEYKCKVSNKALPKPIEKTISKAKGQPREPQVYTLPPSREEMTKNQVSLTCLVKGFYPSDIAVEWESNGQPENNYKTTPPVLDSDGSFFLYSKLTVDKSRWQQGNVFSCSVMHEALHNHYTQKSLSLSP light: DIVMTQSPATLSLSPGERATLSCTSSQSVYHANWLSWFQQKPGQPPKLLIYWASTLAYGVPSRFSGSGSGTDFTLTISSLQPEDAATYYCAGGYGGGRYAFGQGTKVEIKRTVAAPSVFIFPPSDEQLKSGTASVVCLLNNFYPREAKVQWKVDNALQSGNSQESVTEQDSKDSTYSLSSTLTLSKADYEKHKVYACEVTHQGLSSPVTKSFNRGEC | 2.7 fold | 2.4 fold | 0.6 fold | 3.3 fold | 2.1 fold | 0.05 fold | 1.1 fold | 0.4 fold | 0.03 fold
